Assay results as given in the supplement of paper PMC10724198.
± gives the standard deviation of the averaged measurements.

What was measured:
Saccharomyces cerevisiae [1] = test: protein stability index of tFT-peptide fusion (C-terminal peptide) (PSI (0-1 scale)); higher = more stable (slower turnover); conditions: genetic background: wild type; temperature: 30 C
Saccharomyces cerevisiae [2] = test: as above
Method: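 MPS profiling in S. cerevisiae of the tFT-X12 degron library: putative degron peptides plus stable controls, 12 aa, fused to the C-terminus of a sfGFP-mCherry timer. Cells are FACS-sorted into 8 mCherry/sfGFP bins and deep-sequenced. PSI runs from 0 (unstable) to 1 (stable). Backgrounds are wild type, das1Δ and doa10Δ at 30 °C, and wild type, das1Δ, cdc34-1 and cdc53-1 at 37 °C; 2-3 technical replicates each.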

[3] = genetic background: cdc34-1, temperature: 37 C
[4] = genetic background: cdc53-1, temperature: 37 C
[5] = genetic background: das1 deletion, temperature: 30 C
[6] = genetic background: das1 deletion, temperature: 37 C
[7] = genetic background: doa10 deletion, temperature: 30 C
[8] = genetic background: wild type, temperature: 30 C
[9] = genetic background: wild type, temperature: 37 C
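Also: PSI is a weighted mean of sequencing reads over stability bins, variants kept only with over 10 reads, mCherry proximal and sfGFP distal, peptide attached via GGGS linker.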

Row | Sequence | protein stability index (Saccharomyces cerevisiae [1]) | protein stability index (Saccharomyces cerevisiae [2]; [3]) | protein stability index (Saccharomyces cerevisiae [2]; [4]) | protein stability index (Saccharomyces cerevisiae [2]; [5]) | protein stability index (Saccharomyces cerevisiae [2]; [6]) | protein stability index (Saccharomyces cerevisiae [2]; [7]) | protein stability index (Saccharomyces cerevisiae [2]; [8]) | protein stability index (Saccharomyces cerevisiae [2]; [9])
1 | PVGLMKRFRLFI | 0.455 ± 0.058 | 0.698 ± 0.088 | 0.727 ± 0.02 | 0.615 ± 0.031 | 0.716 ± 0.023 | 0.332 ± 0.012 | 0.364 ± 0.031 | 0.626 ± 0.018
2 | PVPPSLLHRPPF | 0.33 ± 0.014 | 0.679 ± 0.056 | 0.736 ± 0.045 | 0.682 ± 0.014 | 0.722 ± 0.018 | 0.677 ± 0.011 | 0.673 ± 0.021 | 0.727 ± 0.027
3 | PWAHIRTVQTYV | 0.437 ± 0.0069 | 0.673 ± 0.0069 | 0.716 ± 0.013 | 0.595 ± 0.011 | 0.7626 ± 0.0066 | 0.286 ± 0.0081 | 0.314 ± 0.033 | 0.461 ± 0.027
4 | PWFSWLLYSFLF | 0.501 ± 0.0028 | 0.546 ± 0.024 | 0.529 ± 0.031 | 0.526 ± 0.013 | 0.651 ± 0.029 | 0.535 ± 0.016 | 0.458 ± 0.026 | 0.551 ± 0.011
5 | PYSLYASSSSPL | 0.727 ± 0.024 | 0.696 ± 0.045 | 0.7492 ± 0.0029 | 0.68 ± 0.023 | 0.748 ± 0.019 | 0.6716 ± 0.0016 | 0.676 ± 0.017 | 0.716 ± 0.015
6 | QCSVRLKEIQFS | 0.346 ± 0.1 | 0.664 ± 0.032 | 0.726 ± 0.011 | 0.673 ± 0.03 | 0.72 ± 0.028 | 0.209 ± 0.023 | 0.276 ± 0.0056 | 0.481 ± 0.045
7 | QERKILGRIKQA | 0.265 ± 0.12 | 0.51 ± 0.078 | 0.6853 ± 0.00099 | 0.651 ± 0.05 | 0.7081 ± 0.0052 | 0.0853 ± 0.0029 | 0.0987 ± 0.035 | 0.161 ± 0.026
8 | QITIYPIPLARF | 0.79 ± 0.065 | 0.951 ± 0.015 | 0.937 ± 0.0099 | 0.807 ± 0.015 | 0.88 ± 0.0098 | 0.808 ± 0.027 | 0.867 ± 0.015 | 0.8924 ± 0.0076
9 | QPSSFDMLGLLL | 0.742 ± 0.049 | 0.6791 ± 0.0055 | 0.738 ± 0.019 | 0.654 ± 0.0092 | 0.752 ± 0.023 | 0.671 ± 0.053 | 0.663 ± 0.02 | 0.709 ± 0.0089
10 | RFKEKVSIIHKQ | 0.207 ± 0.054 | 0.6446 ± 0.0022 | 0.665 ± 0.061 | 0.693 ± 0.04 | 0.74 ± 0.017 | 0.11 ± 0.0081 | 0.106 ± 0.046 | 0.12487 ± 0.0001
11 | RGYATTALHWVS | 0.486 ± 0.019 | 0.668 ± 0.038 | 0.7695 ± 0.0075 | 0.6757 ± 0.002 | 0.7395 ± 0.0034 | 0.362 ± 0.0075 | 0.4 ± 0.022 | 0.596 ± 0.015
12 | RHRGHVRLALLN | 0.396 ± 0.0095 | 0.7 ± 0.079 | 0.845 ± 0.041 | 0.772 ± 0.013 | 0.791 ± 0.061 | 0.233 ± 0.025 | 0.26 ± 0.029 | 0.381 ± 0.017
13 | RICCLFILLFCL | 0.423 ± 0.057 | 0.439 ± 0.043 | 0.464 ± 0.024 | 0.396 ± 0.03 | 0.477 ± 0.0084 | 0.422 ± 0.0089 | 0.365 ± 0.028 | 0.412 ± 0.019
14 | RIEGTLTARTAF | 0.579 ± 0.18 | 0.736 ± 0.069 | 0.7639 ± 0.0033 | 0.635 ± 0.033 | 0.744 ± 0.013 | 0.65 ± 0.01 | 0.66 ± 0.0097 | 0.709 ± 0.00092
15 | RITGCWKTYKMQ | 0.308 ± 0.055 | 0.6341 ± 0.00082 | 0.721 ± 0.0019 | 0.615 ± 0.0094 | 0.758 ± 0.055 | 0.14145 ± 6.9e-05 | 0.164 ± 0.026 | 0.342 ± 0.073
16 | RKNIKISKAGIG | 0.279 ± 0.1 | 0.283 ± 0.0034 | 0.394 ± 0.0056 | 0.343 ± 0.012 | 0.377 ± 0.012 | 0.31 ± 0.0041 | 0.287 ± 0.021 | 0.332 ± 0.0074
17 | RKRTILVIIVVK | 0.338 ± 0.061 | 0.181 ± 0.031 | 0.33 ± 0.042 | 0.234 ± 0.045 | 0.461 ± 0.05 | 0.186 ± 0.011 | 0.217 ± 0.046 | 0.395 ± 0.052
18 | RKVWSLCWFVHL | 0.116 ± 0.0023 | 0.49 ± 0.071 | 0.617 ± 0.012 | 0.512 ± 0.012 | 0.65 ± 0.008 | 0.0695 ± 0.0078 | 0.0716 ± 0.015 | 0.0795 ± 0.0077
19 | RLGRYSIIHCLA | 0.15 ± 0.0068 | 0.295 ± 0.023 | 0.459 ± 0.044 | 0.327 ± 0.029 | 0.52 ± 0.021 | 0.0877 ± 0.015 | 0.102 ± 0.028 | 0.0944 ± 0.058
